Assay results taken from US20100150950A1, “HUMAN ANTIBODIES THAT BIND CD70 AND USES THEREOF” (Medarex, Inc., priority 2006, published 2010).

T1: CD70 expressed on the surface of Daudi lymphoma cells (Homo sapiens, UniProt P32970)
T1 construct: endogenous in cells; host or cells: Daudi (ATCC CCL-213), HuT 78 (TIB-161), Raji (CCL-86), Granta 519 (DSMZ 342)
T1 sequence (P32970 1-193): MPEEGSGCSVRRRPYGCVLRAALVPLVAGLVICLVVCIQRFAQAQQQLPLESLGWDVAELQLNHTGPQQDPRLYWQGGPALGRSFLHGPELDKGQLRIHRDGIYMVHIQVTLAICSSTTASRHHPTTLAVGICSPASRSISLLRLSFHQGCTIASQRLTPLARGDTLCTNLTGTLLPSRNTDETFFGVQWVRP


Assays:
[1] = biological target: T1, CD70 expressed on the surface of Daudi lymphoma cells; assay: Flow cytometry binding to Daudi cells; conditions: antibody 1 μg/ml
Procedure: Anti-CD70 antibodies were tested for binding to lymphoma cells expressing CD70 on their cell surface by flow cytometry.
The lymphoma cell lines Daudi (ATCC Accession No. CCL-213), HuT 78 (ATCC Accession No. TIB-161) and Raji (ATCC Accession No. CCL-86) were each tested for antibody binding. Binding of the HuMAb 2H5 anti-CD70 human monoclonal antibody was assessed by incubating 1×10^5 cells with 2H5 at a concentration of 1 μg/ml. The cells were washed and binding was detected with a FITC-labeled anti-human IgG Ab. […] Flow cytometric analyses were performed using a FACSCalibur flow cytometry (Becton Dickinson, San Jose, Calif.). The anti-CD70 monoclonal antibody 2H5 bound to the lymphoma cell lines Daudi, HuT 78 and Raji, as measured by the mean fluorescent intensity (MFI) of staining.
The Daudi lymphoma cell line and 786-O renal carcinoma cell were further tested for antibody binding. Binding of the HuMAb 69A7 anti-CD70 human monoclonal antibody was assessed by incubating 2×10^5 cells with 69A7 at a concentration of 1 μg/ml. The cells were washed and binding was detected with a FITC-labeled anti-human IgG Ab. […] The anti-CD70 monoclonal antibody 69A7 bound to the Daudi lymphoma cell line and 786-O renal carcinoma cell line, as measured by the mean fluorescent intensity (MFI) of staining.

[2] = tested on: CD70 costimulation of human CD3+ T cells; assay: CD70 co-stimulated human T cell proliferation and IFN-γ secretion; format: cell-based; conditions: CHO-S/mCD32/CD70 cells + anti-hCD3, 3 days
Procedure: In this experiment, the HuMAb anti-CD70 antibody 2H5 was tested for inhibition of inflammatory responses. CHO-S cells stably transfected with mouse CD32 (CHO-S/mCD32 cells) were transiently transfected with a full length human CD70 construct (CHO-S/mCD32/CD70 cells). Surface expression was confirmed by flow cytometry using 2A5 and PE conjugated anti-human IgG secondary Ab (data not shown). RosetteSep® Human T Cell Enrichment Kit (Cat# 15061; StemCell Technologies Inc) purified human peripheral blood CD3^+ T cells were stimulated in vitro at 1×10^6/well with 1×10^5 CHO-S/mCD32 or CHO-S/mCD32/CD70 cells/well, 1μg/ml anti-hCD3 (clone OKT3; BD Bioscience) and serial dilutions of either the HuMAb 2H5 or non-fucosylated 2H5 (2H5 NF) in triplicate wells of a 96 well plate. After 3 days supernatant aliquots were collected and interferon-gamma (INF-γ) secretion was measured by a quantitative ELISA kit (BD Biosciences). The plates were pulsed with 1 μCi/ml of ^3H-thymidine, incubated for 8 hours, cells were harvested and ^3H-thymidine incorporation was read on a Trilux® 1450 Microbeta Counter (Wallac, Inc.). An IgG1 isotype control antibody was used as a negative control. […] Data also show 2H5 inhibition is specific to CD70 costimulation as 2H5 had no effect on anti-CD3^+ CHO-S/mCD32 mediated proliferation. […]

[3] = tested on: peptide specific CD8+ T cells; assay: CMV peptide specific CD8+ T cell expansion in PBMC; format: cell-based, human
Procedure: Human MHC class I haplotype B*3501+ peripheral blood mononuclear cells (PBMC) pre-screened for cytomegalovirus (CMV) specific T cell responses (Astarte, Inc) were cultured in the presence of 25 ng/ml of B*3501 binding CMV peptide […] (SEQ ID NO:90) (ProImmune, Oxford, UK) and serial dilutions of the HuMAb 2H5 for 11 days. Cultures were analyzed by flow cytometry for CD8+ T cells by PE conjugated anti-CD8 staining (clone RPA-T8, BD Biosciences), for peptide specific CD8+ T cells by APC labeled peptide-MHC Class I pentameric oligomer staining (F114-4B; ProImmunc) and for viability by lack of propidium iodide staining. An isotype control antibody was used as a negative control. […] CD8+ T cell expansion (FIG. 37A). […] Data is representative of one additional experiment performed with the same donor.
Human MHC class I haplotype B*3501+PBMC pre-screened for cytomegalovirus (CMV) specific T cell responses (Astarte, Inc) were cultured in presence of 25 ng/ml of B*3501 binding CMV peptide […] (ProImmune) (SEQ ID NO:90) and 20 μgs/ml of the HuMAb 2H5 in the presence or absence of serial dilutions of an anti-human CD16 (FcRγIII) functional blocking Ab (clone 3G8; BD Biosciences) for 11 days and were then analyzed by flow cytometry for peptide specific CD8+ cell numbers as described above. […] Approximately 1000-fold more 3G8 was required to reverse 2H5 NF mediated inhibition compared to 2H5.

| Molecule | binding to Daudi cells (MFI) [1] | CD70 co-stimulated INF-γ secretion [2] | CD70 co-stimulated proliferation [2] | peptide specific CD8+ T cell expansion ([3]; 25 ng/ml CMV peptide, 11 days) | total CD8+ cell numbers ([3]; 25 ng/ml CMV peptide, 11 days) | 3G8 required to reverse inhibition compared to 2H5 ([3]; antibody 20 μgs/ml) | effect of anti-CD16 Ab 3G8 on inhibition of peptide specific CD8+ T cell expansion ([3]; antibody 20 μgs/ml, serial dilutions of 3G8) |
| --- | --- | --- | --- | --- | --- | --- | --- |
| anti-CD70 human monoclonal antibody 69A7 (antibody, V domains shown, Human IgG from hybridoma; also called HuMAb 69A7; FITC-conjugated 69A7) VH: QVQLQESGPGLVKPSETLSLTCTVSGGSVSSDYYYWSWIRQPPGKGLEWLGYIYYSGSTNYNPSLKSRVTISVDTSKNQFSLKLRSVTTADTAVYYCARGDGDYGGNCFDYWGQGTLVTVSS VL: EIVLTQSPATLSLSPGERATLSCRASQSVSSYLAWYQQKPGQAPRLLIFDASNRATGIPARFSGSGSGTDFTLTISSLEPEDFAVYYCQQRSNWPLTFGGGTKVEIK | bound |  |  |  |  |  |  |
| 2H5 NF: 2H5 HuMAb lacking fucosyl residues, expressed in CHO cell line Ms704-PF (antibody, V domains shown) VH: QVQLVESGGGVVQPGRSLRLSCAASGFTFSSYIMHWVRQAPGKGLEWVAVISYDGRNKYYADSVKGRFTISRDNSKNTLYLQMNSLRAEDTAVYYCARDTDGYDFDYWGQGTLVTVSS VL: EIVLTQSPATLSLSPGERATLSCRASQSVSSYLAWYQQKPGQAPRLLIYDASNRATGIPARFSGSGSGTDFTLTISSLEPEDFAVYYCQQRTNWPLTFGGGTKVEIK |  | completely inhibited | completely inhibited | completely inhibited | no significant reduction | Approximately 1000 fold | Dose dependent reversal |
